T1: Mas receptor fused to Rluc (MasR-Rluc) (human), P04201
T1 chain: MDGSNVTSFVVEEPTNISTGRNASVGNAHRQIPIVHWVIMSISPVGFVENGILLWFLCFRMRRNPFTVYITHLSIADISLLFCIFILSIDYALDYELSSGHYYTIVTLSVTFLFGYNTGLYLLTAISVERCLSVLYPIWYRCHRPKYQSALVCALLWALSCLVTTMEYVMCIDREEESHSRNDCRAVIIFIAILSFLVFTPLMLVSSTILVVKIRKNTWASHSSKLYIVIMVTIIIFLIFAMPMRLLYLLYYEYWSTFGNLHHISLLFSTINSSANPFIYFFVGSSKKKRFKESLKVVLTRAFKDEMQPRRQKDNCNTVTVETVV


Legend:
[1] = molecular target: Mas receptor, endogenous in mouse striatal cells (mouse (endogenous in primary striatal neurons and microglia)) (UniProt P30554); test: proximity ligation
[2] = molecular target: T1, Mas receptor fused to Rluc (MasR-Rluc) …; test: FRET or BRET; conditions: remark: other sources report otherwise

Chain of UniProt P30554 (P30554 whole entry, the tested form may be a part): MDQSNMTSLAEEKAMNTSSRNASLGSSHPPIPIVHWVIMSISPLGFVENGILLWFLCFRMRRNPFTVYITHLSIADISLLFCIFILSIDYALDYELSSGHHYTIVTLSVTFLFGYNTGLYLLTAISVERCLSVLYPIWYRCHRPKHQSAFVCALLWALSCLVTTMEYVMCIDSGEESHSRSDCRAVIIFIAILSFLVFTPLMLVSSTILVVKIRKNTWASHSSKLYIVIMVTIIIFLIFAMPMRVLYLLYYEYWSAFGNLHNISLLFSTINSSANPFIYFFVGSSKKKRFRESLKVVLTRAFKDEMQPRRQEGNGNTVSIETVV

| BRET50 [2] [mBU] | Molecule | PLA red dots/cell (striatal neurons) (red dots/cell) [1] |
| --- | --- | --- |
|  | Angiotensin AT1 receptor, endogenous in mouse striatal cells (from UniProt P29754 1-359) | 1.44 |
| 13 | Angiotensin AT1 receptor fused to YFP (AT1R-YFP), P30556 1-359 (receptor) MILNSSTEDGIKRIQDDCPKAGRHNYIFVMIPTLYSIIFVVGIFGNSLVVIVIYFYMKLKTVASVFLLNLALADLCFLLTLPLWAVYTAMEYRWPFGNYLCKIASASVSFNLYASVFLLTCLSIDRYLAIVHPMKSRLRRTMLVAKVTCIIIWLLAGLASLPAIIHRNVFFIENTNITVCAFHYESQNSTLPIGLGLTKNILGFLFPFLIILTSYTLIWKALKKAYEIQKNKPRNDDIFKIIMAIVLFFFFSWIPHQIFTFLDVLIQLGIIRDCRIADIVDTAMPITICIAYFNNCLNPLFYGFLGKKFKRYFLQLLKYIPPKAKSHSNLSTKMSTLSYRPSDNVSSSTKKPAPCFEVE |  |
